Target: GST-capicua (1-450) (Homo sapiens, UniProt Q96RK0-2 1-450)
Test: EMSA

B1: CRE probe (ETV4/ETV5 promoter CIC-responsive element) (dsDNA)
DNA 1: GTCGCGTTTTTTATGAATGAAAAACGTCCTTACATTCATT
DNA 2: AATGAATGTAAGGACGTTTTTCATTCATAAAAAACGCGAC
binding result: binds

— article PMC3025492
